Assay: soluble on expression in E. coli; label from the status in PepcDB or PDB records

Sequence | soluble on expression in E. coli
MSLRIPTKPSPVFDAATDPAGSGKDLGNLPDWDLSDLYAAPDAPEVTRDLDRLKTLCADFAERYEGKLADLDAQGMLTCVTAHEEIDRIAGRLMSYAGLRYYQVTTDGERAQFLQNCQEKLTDYTTPLVFFSLEINRIPDDKLDALFEANADLARYKPIFDRLRAMRPYQLSDELEKFLHDQSAVGSAAWNKLFDETMARLTFSPEGEDEDLSLEATLNLLSEQKRSRREAGARELARVFGENLPLFARVHNTLAKEKEIEDRWRKMPSAQTARHLSNHVEPEVVEALRNAVVDAYPKLSHRYYALKAKWLGLETMEVWDRNAPLPMEEERVIDWPKAREMVLSAYAGFDPEMAAIAEPFFDRGWIDAGVKPGKAPGAFAHPTVTDAHPYVLLNYLGKPRDVMTLAHELGHGVHQVLAAGQGELLADTPLTLAETASVFGEMLTFRKLLAEAPDAAQKKVLLAGKVEDMINTVVRQIAFYDFECKLHEARRTRGELTTSQINELWMSVQGESLGPAFTFMDGYETFWSYIPHFVHSPFYVYAYAFGDGLVNALYAVYEEGDPDFQKKYFEMLKAGGSKHHSELLKPFGLDASDPKFWDKGLSMISGFIDELEAMEDEGHHHHHH | soluble
MAHHHHHHMIYKAYGSPENNSGNTHMYSMYAPPNAYVQGQGGSRTMYGYAGTGGHGSGHPFGYHANPSMGVTYEYNGGINVHHNGSAYRVGGGTNGRDRGGDVVSLRNLHGYDQQATSDYEVHDNQLKAPVVVTPATVVSTLGSARLFSKPPKPIVYGSRCVVRICDAFQEGRCAAGDRCHDIHVRPEYLAETRMEMSSWLFDRECEFRQTMEMDSEKTFSIFVADLKEVVEVPINSLVFTKGLYVDPATRAKRARGAGNHAHVHAMMQVPTSCGLYSTDPLQCKWERWCNQVHIDHRWMQVKKAEFDQWFIELQNRYFSLAPDDTFTVHDPQLKSSISLPKFSIAGFSRGLFQGSMKKLASVCLLFQRGKCTAGSCCNQIHVFPQYLSLAREFAAMEQSPDALPEEKQRLRREMELLRGPLMKQEKQETAAMESASLPNVVSSANEGTHSDAMDIKAAAEEDLASCGALFEHVQVDEDVEPVSHLVSANTSLTRRMNASAPDISLSVARHMNSDGSYSFNPYGSVTSLPDGSTSFNRFPGTRGSGQPMDGNGSVQYTPGSVQLLSTDTKGMRRLVALVSPESGNGAVELHRNGDDMGIGGNAGDGGTATVAHDRAPPFAAGHRSNGGYRAVAHPLGDEGGRYDSGTQGEQSCSLHPLDFDASWHFSPTPLLGFDASTTSTHRNGSIRDEDPAMHAHLRLTASNSSYIYPGSSTTSQQNLLSTPMHRGVTSNATTAARVRLAASAASSRTHAHRSATSLPDSSTTNPAMGGSVSSMPTARPTFVGEQLTGTR | not soluble
MGSDKIHHHHHHMKRENLHQPFEISFSEFDESMLKEHDHTFFELVYILSGTGIQWINNNKFSYHGGHLFMITPGDSHSFEIHSTTKFIDIKFNDIYIHSAVFGTENIKRLEFILQHANHQPGCILRNRTDKLLVKPMIEAIIREYVNRNLYSKEIITQLINTIIIVVARNIAMFLPEQVNECSEEKSLGILQYIQTYIYQSEKIKTKAISQHFGISENYLGRYFKKHTNETMQQYILNYKLKLVENRLLHSEMRISEIVAELGFTDESHLNKLFKKYRGCSPTNFRKNNAV | not soluble
MSAYIAPSQIAQRQLEYFNGKHVLVAGEVEDMFPLELTAHCESVEVFTSNYSYFRQIRHSDKIKSHFGSEFDVETQADMLLLYWPKAKAEAEYLLAMLMAKLGVNTEIVVVGENRSGVKSIEKMFKEYGPVNKYDSARRCSFYWGNCLNEPKPFNQEEWFKSYTVTLGEQSLTVKSLPGVFSHGEFDLGSRLLLETLPNLSGKVLDFGCGAGVLGAFMAKANPEIAIEMCDINAYAITSSQATLEANGLSGRVFASDIYSDTANDYRFIISNPPFHSGLDTNYNAAETLLGHAPQHLSNHGEMIIVANSFLKYPPIIENAFNNCETLNKTNKFSIYYAKKS | not soluble
MSDNNTLRMAEMLDKQNSRQHDFMKLMMEMNNSARLSDQARDDRNAIRNENNLKEVFNKLIEAQKEESPIDISIKIRR | not soluble
SLQKFNQIHSLFEHLPANYGEFSDFEQKIATLAQEMKVDLSLYEIDHLSIRVNTEDKAKSWLTTLLNYGKILSNNLVNGRAIYLIELEQPLLFMGQRVFIIELPFPKNKHYPVESWEHIEFVIPFLPNESSIEWVERVQQQFLWNQSGNLTIKVDEPKVDGEQLPNPSIAVSFADKSQNHVCIKVHPFNIKNIIKVSEG | soluble
KVILYARVSSSTQKDELVNQVKYLEEQVKEYDLVITDIGSGLNMKRKGFLKLLRMILNNEVSRVVVAYPDRLVRVGFEILEEVCKAHNCEIVVLNQEDKEEELVEDLMSALVSFSGKLYGMRSHEYEKVKKCAEELKNWKI | soluble
MGHHHHHHSHMKTLEAHKDPHKEVVRSAEEAASVLATSISPEQCIKVLCPIIQTADYPINLAAIKMQTKVIERVSKETLNLLLPEIMPGLIQGYDNSESSVRKACVFCLVAVHAVIGDELKPHLSQLTGSKMKLLNLYIKRAQTGSGGADPTTDVSGQS | not soluble
MSFDGFFLHHLTNELKENLLYGRIQKVNQPFERELVLTIRNHRKNYKLLLSAHPVFGRVQITQADFQNPQVPNTFTMIMRKYLQGAVIEQLEQIDNDRIIEIKVSNKNEIGDAIQATLIIEIMGKHSNIILVDRAENKIIESIKHVGFSQNSYRTILPGSTYIEPPKTAAVNPFTITDVPLFEILQTQELTVKSLQQHFQGLGRDTAKELAELLTTDKLKRFREFFARPTQANLTTASFAPVLFSDSHATFETLSDMLDHFYQDKAERDRINQQASDLIHRVQTELDKNRNKLSKQEAELLATENAELFRQKGELLTTYLSLVPNNQDSVILDNYYTGEKIEIALDKALTPNQNAQRYFKKYQKLKEAVKHLSGLIADTKQSITYFESVDYNLSQASIDDIEDIREELYQAGFLKSRQRDKRHKRKKPEQYLASDGTTILMVGRNNLQNEELTFKMAKKGELWFHAKDIPGSHVIIKDNLDPSDEVKTDAAELAAYYSKARLSNLVQVDMIEAKKLHKPSGAKPGFVTYTGQKTLRVTPDQAKILSMKLS | not soluble
MSMPETKTRSVALTPPLHTPRLLLLPLQLEDAPAMQSLFNHWEVVRYLTHHVPWPYPEGEALRYLREDALPAMQDGEEWHWSIRLRSQQDRLIGSACMMDEQDNNRGFWLSPAYQGLGLMSEVCVAIDRFWFETLKRPVLRVAKCALNEASCRLSQREGMRLVTVQESQFVCGTTQEQLWELTRDEWRANNGG | not soluble
ARVDQTPQTITKETGESLTINCVLRDSNCALSSTYWYRKKSGSTNEESISKGGRYVETVNSGSKSFSLRINDLTVEDSGTYRCKPESRYGSYDAECAALNDQYGGGTVVTVNAAAHHHHHH | soluble
MGSDKIHHHHHHEVDLYKGGSLREPAYLYPFDQENKNVTAEITIKTNSTINLELLDVYFAPLKYNKHLLIMLTQDDCKPSIYPRTWASINGKPLSGQYYYHYEQLKQDDLPPDIYYLGKTLGCTDGTGKEVRFSFTATLAADDNYMAEESIINLGYSKDNYRFYGRNGILWEDVIDIVNYGNSIAFHNVNTKEIHNIDSIQKHYLIGQDSIQKRLSGRKCKTLSEPDGNIDYTTAAINLDDIKTITAERGEKVYPFHNLTNLENHTLNRVFHDSPDDFKQVIEQERSIPTVDRCAINIGVHSTDAFWTDFLLWLNDTYGKDGEDCIWMPSQEEYYEYNYYRMHGKIEKSADGSTLKLIINLPSQEYFYYPSVTINLKGLKKEDIKSIESNSAVTGLSYGNYQDGVMLNIDCRRFLVEHATHFVEQYEKDKTNQSNKADALYFVNMLKESSKKAELLNRIK | not soluble
MGSDKIHHHHHHMNVLITGMNGTVAPVLADVFRSHHYDITAWDRSVVSTTDSAVMEAFIDRVQPDLLLHIGMGPAEFAETLARLSFERNIPFLFTSTASVYSDEQKGPHDPAIVPAATDEYGAYKRTCERLIQAVNPDAYIVRIGWQIGQAAGSNNMIDYLERHAIAGPIPASTQWYPSCAFLEDTAQTLYTIVTTYTPGLYLANGNASHSFFDIVTALNILHGSKWHITEDNSMTRDDRMTDSRVVIRPISEHLSFVH | not soluble

Source: the DeepSol protein solubility set
